Source: the supplement of paper PMC10126150
± gives the standard deviation of the averaged measurements.

System: ATP
Assay: switch fluorescence ratio, 500 uM ATP over buffer (Cy3 cluster intensity, sum of 5 cycles each) (fold (ratio)); higher = stronger signal-on switching upon ATP binding; sequences stand for … in TCGTCGGCAGCGTCAGATGTGTATAAGAGACAGTTTTTTTTTTTTTTTTTTTTTTTTT…TC
Settings: aptamer strand: ATP DNA aptamer (quencher-CACCTGGGGGAGTATTGCGGAGGAAGG + anchor), 100 nM annealed; ATP concentration: 500 uM
How it was run: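 Clusters carrying Cy3-labelled switching strands on a modified Illumina MiSeq flow-cell were annealed to 100 nM quencher-labelled ATP aptamer and imaged in selection buffer. They were imaged again after 15 min with 500 uM ATP at 22 °C, over five buffer/ATP cycles with NaOH stripping and re-annealing in between. For each cluster, the fluorescence ratio is the summed Cy3 intensity of the target cycles divided by that of the buffer cycles, averaged per switch-domain sequence. Clusters outside 100-1000 RFU were left out.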
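Note: ATP exposure 15 min at 22 °C before imaging.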

Sequence | switch fluorescence ratio
TGGGGGGGCT | 1.02 ± 0.036
TGGGGGGTTA | 0.995 ± 0.024
TGGGGGTAAT | 0.992 ± 0.029
TGGGGGTACG | 1.028 ± 0.0016
TGGGGGTAGG | 1.01 ± 0.027
TGGGGGTGAG | 1 ± 0.029
TGGGGGTGCA | 1.01 ± 0.035
TGGGGGTGGC | 1.01 ± 0.052
TGGGGGTGGG | 1.02 ± 0.044
TGGGGGTGTA | 1.05 ± 0.039
TGGGGGTTTA | 1.03 ± 0.019
TGGGGTACAT | 0.991 ± 0.016
TGGGGTAGCA | 1.01 ± 0.029
TGGGGTAGTT | 0.995 ± 0.01
TGGGGTATGT | 1 ± 0.031
TGGGGTCAAA | 0.995 ± 0.036
TGGGGTCATG | 0.9887 ± 0.0096
TGGGGTGGTG | 0.9992 ± 0.0038
TGGGGTGTGG | 1.23 ± 0.36
TGGGGTGTTG | 0.983 ± 0.011
TGGGGTTCGA | 0.975 ± 0.024
TGGGGTTGTA | 1.01 ± 0.056

Sequence | switch fluorescence ratio
TGGGGTTGTT | 0.985 ± 0.033
TGGGGTTTGA | 0.997 ± 0.032
TGGGTAACGA | 0.962 ± 0.021
TGGGTAATCC | 1.03 ± 0.025
TGGGTACTTT | 0.994 ± 0.016
TGGGTAGGAT | 1.02 ± 0.018
TGGGTAGGGA | 0.9759 ± 0.0093
TGGGTAGTGT | 1 ± 0.026
TGGGTATCTT | 1.03 ± 0.061
TGGGTATTCT | 0.945 ± 0.024
TGGGTATTGG | 1 ± 0.03
TGGGTCAGTC | 1.05 ± 0.021
TGGGTCATTT | 0.99 ± 0.034
TGGGTCGGCA | 1.05 ± 0.023
TGGGTCGGGC | 0.9905 ± 0.009
TGGGTCTCTT | 1.01 ± 0.008
TGGGTGAGTT | 1.02 ± 0.019
TGGGTGATAG | 0.99 ± 0.035
TGGGTGATCG | 1.03 ± 0.067
TGGGTGCGG | 0.984 ± 0.026
TGGGTGGAGA | 1.02 ± 0.021
TGGGTGGGAT | 1.002 ± 0.009

Sequence | switch fluorescence ratio
TGGGTGGGTA | 1.03 ± 0.026
TGGGTGGGTC | 1.05 ± 0.069
TGGGTGGGTG | 1.04 ± 0.053
TGGGTGGTGT | 1.016 ± 0.0034
TGGGTGTCGC | 0.9672 ± 0.0039
TGGGTGTCGT | 1.02 ± 0.081
TGGGTTAAGT | 1 ± 0.021
TGGGTTACTA | 1.002 ± 0.0097
TGGGTTCCCG | 0.986 ± 0.013
TGGGTTCGGC | 0.9808 ± 0.0045
TGGGTTCTAT | 0.9874 ± 0.0077
TGGGTTCTTG | 0.998 ± 0.044
TGGGTTGATT | 1.01 ± 0.031
TGGGTTGGGA | 0.991 ± 0.035
TGGGTTGGGG | 1.01 ± 0.049
TGGGTTGTAT | 0.998 ± 0.02
TGGGTTTAGC | 1 ± 0.043
TGGGTTTGGC | 1.02 ± 0.023
TGGTAAACGG | 0.988 ± 0.02
TGGTAAACGT | 1.05 ± 0.026
TGGTAAAGCT | 0.994 ± 0.017
TGGTAAATAT | 1.01 ± 0.013

Sequence | switch fluorescence ratio
TGGTAACGGT | 1.09 ± 0.12
TGGTAATTAG | 0.979 ± 0.014
TGGTACCTTT | 1.04 ± 0.012
TGGTAGAAGG | 0.954 ± 0.013
TGGTAGAGGG | 0.986 ± 0.014
TGGTAGCAGG | 1.24 ± 0.35
TGGTAGGGG | 1.01 ± 0.016
TGGTAGGTGG | 1.017 ± 0.0049
TGGTATGCGC | 0.9971 ± 0.0047
TGGTATGTCA | 0.9913 ± 0.0059
TGGTATGTGA | 1.01 ± 0.032
TGGTATGTGT | 1.003 ± 0.0057
TGGTCCAGAA | 0.977 ± 0.016
TGGTCCCTTG | 1.12 ± 0.16
TGGTCCGGGG | 1.01 ± 0.087
TGGTCGCGTT | 0.988 ± 0.043
TGGTCGGCTG | 1.007 ± 0.0044
TGGTCGTGGG | 1.01 ± 0.032
TGGTCTAGTG | 0.968 ± 0.043
